From US20170037149A1 (Amgen, published 2017)
Where a chain is given by its changes, count along the chain named.

B1: FL-54 scFv (scFv)
scFv: QVQLVESGGGVVQPGRSLRLSCAASGFTFSSYGMHWVRQAPGKCLEWVAVISYDGSNEFYADSVKGRFTISRDNSKNTLYLQMNSLRAEDTAVYYCARGGEITMVRGVIGYYYYGMDVWGQGTTVTVSSGGGGSGGGGSGGGGSEIVMTQSPATLSVSPGERATLSCRASQGVRNNLVWYQQKPGQAPRLLIYGASTRATGIPARFSGSGSGTEFTLTISSLQSEDFATYYCLQHNSYPLTFGCGTKVEIK
notes: periplasmic prep
B2: FL-62 scFv (scFv)
scFv: B1 scFv with C44G, C244G
notes: periplasmic prep; also called F-62
B3: FL-33 scFv (scFv)
scFv: QVTLKESGPVLVKPTETLTLTCTVSGFSLRNARMGVSWIRQPPGKTLEWLAHIFSNDEKSYSTSLKSRLTISKDTSKGQVVLTMTNMDPVDTATYYCARIVGYGSGWYGYFDYWGQGTLVTVSSGGGGSGGGGSGGGGSDIQMTQSPSSLSASVGDRVTITCRASQGIGDDLGWYQQIPGKAPKRLIYATSVLQSGVPSRFSGSGSGTEFTLTISSLQPEDFATYYCLQHNSYPLTFGGGTKLEIK
notes: periplasmic prep
B4: FL-42 scFv (scFv)
scFv: QVTLKESGPALVKPTETLTLTCTLSGFSLNNARMAVSWIRQPPGKCLEWLAHIFSNDEKSYSTSLKSRLTISKDTSKSQVVLTMTNMDPEDTATYYCARIVGYGTGWYGFFDYWGQGILVTVSSGGGGSGGGGSGGGGSDIQMTQSPSSLSASVGDRVTITCRASQGIRNDLAWYQQKPGKAPKRLIYAASSLQSGVPSRFSGSGSGTEFTLTISSLQPEDFATYYCLQHNSYPLTFGCGTKVEIK
notes: periplasmic prep
B5: FL-45 scFv (scFv)
scFv: QVTLKESGPALVKPTQTLTLTCTFSGFSLSNARMGVSWIRQPPGKCLEWLAHIFSNDEKSYRTSLKSRLTISKDTSKSQVVLTMTNMDPVDTATYYCARIVGYGSGWYAYFDYWGQGTLVTVSSGGGGSGGGGSGGGGSDIQMTQSPSSLSASVGDRVTITCRASQGIRNDLGWYQQKPGKAPKRLIYAASSLQSGVPSRFSGSGSGTEFTLTISSLQPEDFATYYCLQHNSYPLTFGCGTKVEIK
notes: periplasmic prep
B6: FL-39 scFv (scFv)
scFv: QVTLKESGPTLVKPTETLTLTCTLSGFSLNNARMGVSWIRQPPGKCLEWLAHIFSNDEKSYSTSLKNRLTISKDSSKTQVVLTMTNVDPVDTATYYCARIVGYGSGWYGFFDYWGQGTLVTVSSGGGGSGGGGSGGGGSDIQMTQSPSSLSASVGDRVTITCRASQGIRNDLGWYQQKPGKAPKRLIYAASTLQSGVPSRFSGSGSGTEFTLTISSLQPEDFATYYCLQHNSYPLTFGCGTKVEIK
notes: periplasmic prep
B7: FL-63 scFv (scFv)
scFv: QVQLVESGGGVVQPGRSLRLSCAASGFTFSSYGMHWVRQAPGKGLEWVAVISYDGSNEFYADSVKGRFTISRDNSKNTLYLQMNSLRAEDTAVYYCARGGEITMVRGVIGYYYYGMDVWGQGTTVTVSSGGGGSGGGGSGGGGSDIQMTQSPSSLSASVGDRVTITCRTSQSISSYLNWYQQKPGKAPKLLIYAASSLQSGVPSRFSGSGSGTEFTLTISSLQPEDFATYYCLQHNSYPLTFGGGTKVDIK
notes: periplasmic prep
B8: FL-53 scFv (scFv)
scFv: B7 scFv with G44C, G244C
notes: periplasmic prep
B9: FL-61 scFv (scFv)
scFv: B7 scFv with T169A, D249E
notes: periplasmic prep
B10: FL-64 scFv (scFv)
scFv: B7 scFv with D161N, T169A
notes: periplasmic prep
B11: FL-46 scFv (scFv)
scFv: QVTLKESGPVLVKPTQTLTLTCTFSGFSLSNARMGVSWIRQPPGKCLEWLALIYWNDDKRYSPSLKSRLTITKDTSKNQVVLTMTNMDPVDTATYYCARMVGYGSGWYAYFDYWGQGTLVTVSSGGGGSGGGGSGGGGSDIQMTQSPSSLSASVGDRVTITCRASQGIRNDLGWYQQKPGKAPKRLIYAASSLQSGVPSRFSGSGSGTEFTLTISSLQPEDFATYYCLQHNSYPLTFGCGTKVEIK
notes: periplasmic prep
B12: FL-47 scFv (scFv)
scFv: B4 scFv with E16Q, L24F, N30S, A35G, N86D, A164T, A173G
notes: periplasmic prep
B13: FL-5 scFv (scFv)
scFv: QVTLKESGPMLVKPTETLTLTCTFSGFSLRNARMGVSWIRQPPGKALEWLAHIFWNDEKSYSTSLKSRLTISKDTSKSQVVLTMTNMDPVDTATYYCARIPYYGSGSYNYGMDVWGQGTTVTVSSGGGGSGGGGSGGGGSDIQMTQSPSSLSASVGDRVTITCRASQGIRNDLGWYQQKPGKAPKRLIYAASSLQSGVPSRFSGSGSGTEFTLTISSLQPEDFATYYCLQHNTYPLTFGGGTKVDIK
notes: periplasmic prep
B14: FL-48 scFv (scFv)
scFv: B13 scFv with A46C, G240C
notes: periplasmic prep
B15: FL-34 scFv (scFv)
scFv: B13 scFv with M10A, T233S, V244L, D245E
notes: periplasmic prep
B16: FL-56 scFv (scFv)
scFv: QVTLKESGPVLVKPTETLTLTCTVSGFSLRNVRMGVSWIRQPPGKALEWLAHIFSNDEKLYTTSLKSRLTISKDTSKSQVVLTMTNMDPEDTATYYCARIVGYGTGWYGYFDYWGQGTQVTVSSGGGGSGGGGSGGGGSDIQMTQSPSSLSASIGDRVTITCRASQDIRDDLGWYQREPGKAPKRLIYATSIRQSGVPSRFSGSGSGTEFTLTISGLQPEDFATYFCLQHHSFPLTFGGGTKVDIK
notes: periplasmic prep
B17: FL-9 scFv (scFv)
scFv: QVTLKESGPTLVKPTETLTLTCTVSGFSLSNARMGVSWIRQPPGKALEWLAHIFSNDEKSYSTSLKSRLTISKDTSKSQVVLTMTNMDPVDTATYYCARIPGYGGNFYYHYYGMDVWGQGTTVTVSSGGGGSGGGGSGGGGSDIQMTQSPSSLSASVGDRVTITCRASQGIRNDLAWYQQKPGKAPKRLIYAASTVQSGVPSRFSGSGSGTEFALTISSLQPEDFATYYCLQHNSFPWTFGQGTKVDIK
notes: periplasmic prep
B18: FL-21 scFv (scFv)
scFv: QVTLKESGPALVKPTETLTLTCTFSGFSLSNARMGVSWIRQPPGKALEWLAHIFSNDEKSYSTSLKSRLTISKDTSKSQVVLTMTNMDPVDTATYYCARIPGYGGNFYYHYYGMDVWGQGTTVTVSSGGGGSGGGGSGGGGSDIQMTQSPSSLSASVGDRVTITCRTSRGIRNDLGWYQQIPGRAPKRLIYAASTLQSGVPSRFSGSGSGTEFTLTISSLQPEDFATYYCLQHNNFPWTFGQGTKVEIK
notes: periplasmic prep
B19: FL-50 scFv (scFv)
scFv: B17 scFv with A46C, Q242C
notes: periplasmic prep
B20: FL-51 scFv (scFv)
scFv: QVTLKESGPTLVKPTETLTLTCTVSGFSLRNVRMGVSWIRQPPGKCLEWLAHISSNDEKSYSTSLRSRLTISTDTSKSQVVLTMTNMDPVDTATYYCARMPGDSNTWRGFFDYWGQGTLVTVSSGGGGSGGGGSGGGGSEIVMTQSPATLSVSPGERATLSCRTSQSVNNNLAWYQQKPGQAPRLLIYGASTRATGIPARFSGSGSGTEFTLTISSLQPEDFATYYCLQHNSYPLTFGCGTKVEIK
notes: periplasmic prep
B21: FL-58 scFv (scFv)
scFv: B20 scFv with C46A, C239G
notes: periplasmic prep
B22: FL-55 scFv (scFv)
scFv: QVQLVESGGGVVQPGRSLRLSCAASGFTFSSYGMHWVRQAPGKCLEWVAVISYDGSNKYYADSVKGRFTISRDNSKNTLYLQMNSLRAEDTAVYYCARSYGMDVWGQGTTVTVSSGGGGSGGGGSGGGGSDIQMTQSPSSVSASVGDRVTITCRASQGISSWLAWYQQKPGKAPKLLIYAASSLQSGVPSRFSGSGSGTDFTLTISSLQPEDFATYYCQQANSFPWTFGCGTKLEIK
notes: periplasmic prep
B23: FL-65 scFv (scFv)
scFv: B22 scFv with C44G, C230Q
notes: periplasmic prep
B24: FL-49 scFv (scFv)
scFv: QVTLKESGPTLVKPTETLTLTCTVSGFSLNNARMGVSWIRQPPGKCLEWLAHIFSNDEKSYSTSLKNRLTISKDSSKTQVVLTMTNVDPVDTATYYCARIVGYGTGWFGYFDYWGQGTQVTVSSGGGGSGGGGSGGGGSDIQMTQSPSSLSASVGDRVTITCRASQDIRTDLAWYQQKPGKAPKRLIYAASSLQSGVPSRFSGSGSGTEFTLTISSLQPEDFATYYCLQHNRYPLTFGCGTKVDIK
notes: periplasmic prep

Target: T1, human FLT3 (human, UniProt P36888 27-993)
T1 construct: On transfected CHO cells, or on the FLT3 positive human AML cell lines EOL-1 / MV4-11 where the row says so; also called hu FLT3; full length human FLT3
Assay: FACS, scFv on CHO-human FLT3 pre-incubated with FLT3 ligand (competitor)
Protocol: The detection was performed using mouse anti-FLAG+PE-conjugated goat anti-mouse and the Fluorescence median detected by FACS (median (+ligand)/median (w/o ligand)*100%)
Afterwards cells were not washed but directly stained with FLT3 binder (scFv's). […] As negative control, cells were incubated with an unspecific scFv instead of FLT3 scFv.
For the evaluation of the data, the fluorescence median was detected by FACS.

Row | Binder | median [+ligand]/median [w/o ligand]*100 [%]
1 | B1 | ≥ 75
2 | B2 | ≥ 75
3 | B3 | ≥ 75
4 | B4 | ≥ 75
5 | B5 | ≥ 75
6 | B6 | ≥ 75
7 | B7 | ≥ 75
8 | B8 | ≥ 75
9 | B9 | ≥ 75
10 | B10 | ≥ 75
11 | B11 | ≥ 75
12 | B12 | ≥ 75
13 | B13 | ≥ 75
14 | B14 | ≥ 75
15 | B15 | ≥ 75
16 | B16 | ≥ 75
17 | B17 | ≥ 75
18 | B18 | ≥ 75
19 | B19 | ≥ 75
20 | B20 | ≥ 75
21 | B21 | ≥ 75
22 | B22 | ≥ 75
23 | B23 | ≥ 75
24 | B24 | ≥ 75
